The values below come from patent US6641818.

For experiment [1], the target named is HveC(143t) (human) (UniProt Q15223). The experiment can be described thus: silver-stained PAGE of the complex fraction against standards.
A further experiment concerns the target HveC(245t) (human) (UniProt Q15223). The experiment can be described thus: gel filtration, from the size of the complex. (Size exclusion chromatography separates by hydrodynamic size, large species first.)
In experiment [2] the target is HveC(346t) (human) (UniProt Q15223). The experiment can be described thus: gel filtration, from the size of the complex.
The target of experiment [3] is HveC(143t) (human) (UniProt Q15223). The experiment can be described thus: gel filtration, from the size of the complex.
For experiment [4] the target is unchanged. Nature of the experiment: SPR (Biacore X), HveC(143t) amine-coupled to the chip, gD in flow, KD = koff/kon. For orientation: Surface plasmon resonance follows binding to a sensor surface in real time, without labels.
The target is the same in experiment [5]. The experiment can be described thus: SPR (Biacore X), HveC(143t) amine-coupled to the chip, gD in flow, 1:1 Langmuir global fit.
Experiment [6] deals with HveC(346t) (human) (UniProt Q15223). Nature of the experiment: SPR (Biacore X), HveC(346t) amine-coupled to the chip, gD in flow, 1:1 Langmuir global fit.
Experiment [7] has the same target. Nature of the experiment: SPR (Biacore X).
The target is the same in experiment [8]. Nature of the experiment: SPR (Biacore X), HveC(346t) amine-coupled to the chip, gD in flow, KD = koff/kon.
The target is the same in experiment [9]. Nature of the experiment: silver-stained gel analysis of the complex formed in excess gD(285t).
Experiment [10] has the same target. The experiment can be described thus: ELISA, HveCt on the plate. (In general: An ELISA detects its analyte on a solid surface through an enzyme-linked reagent.)
The target in experiment [11] is HveA(200t) (human) (UniProt Q92956). The experiment can be described thus: ELISA, apparent affinity from half-maximal binding, HveAt on the plate.
UniProt Q92956, sequence (Q92956 39-202): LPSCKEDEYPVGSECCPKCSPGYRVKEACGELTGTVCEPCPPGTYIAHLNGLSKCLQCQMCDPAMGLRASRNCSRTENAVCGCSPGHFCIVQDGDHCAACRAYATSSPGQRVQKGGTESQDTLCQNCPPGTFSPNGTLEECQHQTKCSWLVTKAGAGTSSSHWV
Experiment [12] has the same target. Nature of the experiment: ELISA, HveAt on the plate.
The target in experiment [13] is HveC(346t) (human) (UniProt Q15223). The experiment can be described thus: ELISA, apparent affinity from half-maximal binding, HveCt on the plate.
For experiment [14] the target is unchanged. The experiment can be described thus: silver-stained SDS-PAGE of the complex fraction.
Experiment [15] has the same target. The experiment can be described thus: gel filtration at various molar ratios.
The target is the same in experiment [16]. Nature of the experiment: gel filtration.

Consider gD(285t) (ligand), for which the ratio in the complex (HveC(143t) per gD(285t)) with HveC(143t) (human) [1] came out at 1. In addition, the stoichiometry (gD:HveC) is 1 gD per HveC with HveC(245t) (human), 2 gD per HveC with HveC(346t) (human) [2] and 1 gD per HveC in the experiment with HveC(143t) (human) [3]. Also, the Kd in the experiment with HveC(143t) (human) [4] stood at 35 nM; with HveC(346t) (human) [8], 38 nM. Besides, the off-rate constant (koff) (in general, the rate constant with which the complex falls apart) was determined as 0.013 s⁻¹ in the experiment with HveC(143t) (human) [5] and 0.0073 s⁻¹ with HveC(346t) (human) [6]. The results for the kon with HveC(143t) (human) [5] and in the experiment with HveC(346t) (human) [6] were 370000 M⁻¹ s⁻¹ and 190000 M⁻¹ s⁻¹, respectively. For the same substance, in the experiment with HveC(346t) (human) [7], the fold increase in affinity over gD(306t) is above 80 fold. Also, the ratio in the complex with HveC(346t) (human) [9] was 2 gD per HveC.

Consider gD(306t)rid1 (ligand), for which the Kd amounted to 200 nM with HveC(143t) (human) [4] and 170 nM in the experiment with HveC(346t) (human) [8]. Also, the koff with HveC(143t) (human) [5] turned out to be 0.008 s⁻¹; with HveC(346t) (human) [6], 0.0047 s⁻¹. Further, the kon (usually the second-order rate constant of association) with HveC(143t) (human) [5] turned out to be 39000 M⁻¹ s⁻¹; with HveC(346t) (human) [6] it was 27000 M⁻¹ s⁻¹. In the experiment with HveC(346t) (human) [7], this substance yielded a fold increase in affinity compared to gD(306t) of 20 fold.

As for gD-1(306t) KOS (ligand), in the experiment with HveC(346t) (human) [10], the gD concentration at saturation (µM (printed RM)) is 10 to 20. Also, the Kd was 300 nM with HveA(200t) (human) [11], 1200 nM with HveC(143t) (human) [4], 1000 nM with HveC(346t) (human) [13] and 3200 nM in the experiment with HveC(346t) (human) [8]. The substance further gave a gD concentration at saturation with HveA(200t) (human) [12] of 2 to 3 µM. The koff with HveC(143t) (human) [5] was 0.011 s⁻¹; in the experiment with HveC(346t) (human) [6], 0.007 s⁻¹. The figures for the kon in the experiment with HveC(143t) (human) [5] and in the experiment with HveC(346t) (human) [6] were 9000 M⁻¹ s⁻¹ and 2200 M⁻¹ s⁻¹, respectively.

Turning to gD-1(A290-299t) (ligand), the fold increase in binding compared to wild type gD(306t) with HveC(346t) (human) [10] and with HveA(200t) (human) [12] was 100 fold in each case. Moreover, the gD:HveCt ratio in the complex in the experiment with HveC(346t) (human) [14] came to 1.6 gD per HveCt. Also, the stoichiometry (gD:HveCt) with HveC(346t) (human) [15] came out at 2 gD per HveCt. Also, the stoichiometry (gD:HveC) in the experiment with HveC(346t) (human) [16] was 2 gD per HveC.
